16 sequences from the nanobody polyreactivity screen of Harvey et al. (2022) can be followed below.

A short description of the data set: yeast display, Sf9 membrane polyspecificity reagent, FACS + sequencing; frameworks hold sequencing errors. The method in brief:
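Nanobodies came from a synthetic yeast display library in Saccharomyces cerevisiae BJ5465, induced with galactose for 36–48 hours and stained for 1 hour at 4 °C with 10% biotinylated, detergent-solubilized Sf9 membrane reagent. Cells were enriched on streptavidin microbeads and then FACS-sorted, with low and high (top ~1%) gates set on anti-HA fluorescence for expression and streptavidin fluorescence for reagent binding. Each polyreactivity label reflects the gate a clone came from. Genes were amplified by colony PCR, sequenced by MiSeq 2 × 250 and filtered by CDR length.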
As to “QVQLVESVGGLVQAGGSLRLSCAASGGIFWVYAMGWYRQAPGKERELVAAISNSDTSTSYADSVKGRFTISRDNAKNTVYLQMNSLKPEDTAVYYCNADSPSLSGDYWGQGTQVTVSS”, the “polyreactivity (PSR sort gate)” value was “low polyreactivity”. For the sequence “QVQLVESVGGLVQAGGSLRLSCAASGITFAWYALGWYRQAPGKERELVAAITWSGDSTYYADSVKGRFTISRDNAKNTVYLQMNSLKPEDTAVYYCAAAYFSSGYKYYYWGQGTQVTVSS”, the “polyreactivity (PSR sort gate)” value is “high polyreactivity”. For the sequence “QVQLVESVGGLVQAGGSLRLSCAASGITFDKYAMGWYRQATVKERELVAAISGSDGSTYYADSVKGRFTISRDNAKNNVYLQMNSLKPEDTAVYYCAAESEYAGTYEYDYWGQGTQVTVSS”, the “polyreactivity (PSR sort gate)” value is “low polyreactivity”. Consider “QVQLVESVGGLVQAGGSLRLSCAASGLILANYAMGWYRQAPGKERELVAAISSSGGSTYYADSVKGRFTISRDNAKNTVYLQMNSLKPEDTAVYYCAKAYRGGSAGKSYYYWGQGTQVTVSS”, for which the “polyreactivity (PSR sort gate)” value is “high polyreactivity”. In the case of “QVQLVESVGGLVQAGGSLRLSCAASGLMFWYYTMGWYRQAPGKERELVAAIRSGGSTNYADSVKGRFTISRDNAKNTVYLQMNSLKPEDTAVYYCAARKWHSAYDYWGQGTQVTVSS”, the “polyreactivity (PSR sort gate)” value is on record as “high polyreactivity”.

“QVQLVESVGGLVQAGGSLRLSCAASGLTFNHYAMGWYRQAPGKEMELVAAISKSGSSTYYADSVKGRFTISRDNAKNTVYLQMNSLKPEDTAVYYCAARSWDPALYDYWGQGTQVTVSS”: the “polyreactivity (PSR sort gate)” value is “high polyreactivity”.

For the sequence “QVQLVESVGGLVQAGGSLRLSCAASGNTFHTNAMGWYRQAPGKERELVAAITGGGSTYYADSVKGRFTISRDNAKNTVYLQMNSLKPEDTAVYYFNTDVPYGLDVSDTIDYYYWGQGTQVTVSS”, the “polyreactivity (PSR sort gate)” value is “low polyreactivity”. As for “QVQLVESVGGLVQAGGSLRLSCAASGNTFYVNVMGWYRQAPGKEREFVAAITWIGGSTYYADSVKGRFTISRDNAKNTVYLQMNSLKPEDTAVYYCAADVYNRWWWRAYDYWGQGTQVTVSS”, the “polyreactivity (PSR sort gate)” value was “high polyreactivity”. For “QVQLVESVGGLVQAGGSLRLSCAASGRIFPVYAMGLYRQAPGKERELVAAISKRDGSTSYADSVKGRFTISRDNAKNTVYIQMNSLKPEDTAVYYCNARNHVQVLFRRDYWGQGTQVTVSS”, the “polyreactivity (PSR sort gate)” value is “low polyreactivity”. For the sequence “QVQLVESVGGLVQAGGSLRLSCAASGRIFWGYDMGWYRQAPGKEREFVAAISSGGGRTYYADSVKGRFTISRDNAKNTVYLQMNSLKPEDTAVYYCNADSGSYWVPRGYEYWGQGTRVTVSS”, the “polyreactivity (PSR sort gate)” value is listed as “low polyreactivity”. As to “QVQLVESVGGLVQAGGSLRLSCAASGRIFYVYVMGWYRPAPGKERELVAAISKRGDNTYYSDSVKGRFTISRDNAKNTVYLQMNSLKPEDTAVYYCNVKRYCGRSDYWGQGTQVTVSS”, the “polyreactivity (PSR sort gate)” value is “high polyreactivity”.

For the sequence “QVQLVESVGGLVQAGGSLRLSCAASGRILKRNAMGWYRQAPGKERELVAAISWSTGTTYYADSVKGRFTISRDNAKNTVYLQMKSLKPEDTAVYYSAKQIVSGRRVDRNDYWGQGTQVSVSS”, the “polyreactivity (PSR sort gate)” value is recorded as “low polyreactivity”. Turning to “QVQLVESVGGLVQAGGSLRLSCAASGRTFDYYALGWYRQAPGKERELVAAISSSGGRTYYADSVKGRFTISRDNAKNTVYLQMNSLKPEDTAVYYCNAVVSRNYEYWGQGTQVTVSS”, the “polyreactivity (PSR sort gate)” value was “high polyreactivity”. With “QVQLVESVGGLVQAGGSLRLSCAASGRTFFKYAMGLYRQAPGKERELVAAITGRGGSTYADSVKGRFTISRDNAKNTVYLQMNSLKPEDTAVYYCAKVYQRGAQYYYYKYDYWGQGTQVTVSS” the entry was “high polyreactivity”; with “QVQLVESVGGLVQAGGSLRLSCAASGRTFGRYAMGWYRKAPGKERELVAAINRGGSTKYADSVKGRFTISRDNAKNTVYFQMNSLKPEDTAVDYCAKDRHPALHYDYWGQGTQVTVSS”, “low polyreactivity”. The same measure for “QVQLVESVGGLVQAGGSLRLSCAASGRTFLRYAMGWYRQAPGKERELVAAISWSGGRTYYADSVKGRFTISRDNAKNTVYLQMNSLKPEDTAVYYCNKVVLYGAHYYYWGQGTQVTVSS”: “high polyreactivity”.
